Laboratory results from the domain aggregation screens of Martell et al. (2025).

Experiment: soluble fraction after stress (log2 fold change); higher = more stays soluble; pooled small domains, quantitative proteomics
Conditions: stress: pH 4
Method in brief: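 Following acid stress at pH 4, the amount of each small protein domain still soluble was measured in pooled custom libraries by high-throughput quantitative proteomics. Its fold change, on a log2 scale, is higher when more of the domain stayed soluble. This fold change is taken as a measure of aggregation propensity.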

Sequence	soluble fraction (log2)
HMNVESLVGKQVIVSETIDNLKATGQVKVNGLEWTARAADETDIIPQGTEVTINEVSGVKLIVSR	0.0287
HMNVESMVGKQGKVVVEIDNISAKGMIKVDGMEWTARSVDGEIIPKDSLVAVVSVEGVKAMVRKAE	0.15
HMNVGKRLKSLREKYKFSLEEVAKKIKSSAGAISRYENNERKINSESLIRLSNLYNVSPEYILYG	0.391
HMNVKQALLELMQRKPELTGSAIARAIGYSPAVISQYLKDGYPGDVVKLTTLIGDFIRRIDEKERS	-0.48
HMNVKVYATIDGDNFKVSGLKPGSNVRVYSSNGSAVFEKKAGDSEMIIPAGAWTKGIYVISADDQSIKVT	-0.0844
HMNVLGQTAIVRSLRLDATFGEVLLADGGAGLIFKARTHGDETFKKGDRVVLLEYLKDQHAYRVISETDFL	-1.18
HMNVLLGISELSHATGVTPAQLRYWVSQGYIKNYGSNKKNKFSLETVFMVRSIKIFQNQGYTLSASAKRAA	-0.285
HMNVNFVQANLANLPNIQAIYQKGNEMLNDMKRGEAREIDEAYSRVDNGVGTEKDFKVLLSFRDKIIAAMQ	≥ 0.43
HMNVNSMIGKEGRVIEDIDNFNETGRIIVDGMEWTARAVNEQSITSGQKVVIREIQGVKAMVVPM	-0.299
HMNVNTNTILKSLMETYPDSTVFKKAEIVSIANSLGFKKSDYSPLTSTDNRTDVRGQYDLSAVIIPMRESN	-0.11
HMNVPYEMVTQNGEVFYKYKVQPGEGVFAVSRTFSVSVAEILRVNPEANKGLKNGQVLLIPVPKDMIA	-0.147
HMNVVGAKGRIIKISSSEEKMAVAEIEGHGEWNIRTNSEIELFVGKSVEVIEMKGNYLLVNQI	-1.81
HMNVWESVDLRQEQHEAKRRLILKQAALLFADRGFHETTIDQIAEALNVTKPTIYYYIESKEDLLYQVA	-0.369
HMNWQLITDPKELRELVQKTIADNEAGTSRLREGDMGPLEFLTGIIMKKTRGLADPTMVKALLKEELNI	0.0177
HMNYEFLEKIGFSSNEAKVYGTLIKHKVLNGYEIAKLSGVARSLVYEVINRLVAKGAVIRIDGEPNFYKP	-0.236
HMNYHDTLSYLMDAFGGADNLQKLLGVGPSALSNYRRREHLPLNQARKLSNIAPEFGFNLDPYTLKISVID	-0.588
HMNYKLESYLKKVDDQLNFIPVSDKADILSELKNTFYERLLNGQTEEEILDEMESPRELALSYMSES	-1.38

Sequence	soluble fraction (log2)
HMNYTYTVPEGIRYLRADKALALAFPDHSRTALQRAFDSGLVTLRGVAIKRDQSVTALDTLEFAMPDI	-0.675
HMNYVFVLNEHGVRQTSYVVGLHADTLEKTEKLAKQTYPTSTIISGDSEMQSQFISGKAYVNGEFVDP	-0.192
HMPAFWILAVLAGGRRHGYQIMREAALSSEGLVTLKPTTLYAALERLERDGAIQQDGEEIVDGRVRRYYRI	-0.305
HMPAKDAEFTAFVRSATPTLTRTAYLLTGDRETASDLVQEAFVRTYLAWRRVRPEEATAYTRRVLVN	0.22
HMPAPMISIQLNGEPRNVQPGISIAALVREIGLEPAKVAVERNREIVPRSTLGDVLIEAGDQLEIVHFVG	0.0156
HMPAQPEPYNNLARLYSAQGKLDQAASLLRAGLYTDPAYRALFDNLTRIYAEQAARSLSAALD	-0.879
HMPASDPNEKQILRFLTEHQVITRKETQALLDVSQSTAGRVLKAMVDNGQIKQLGGSRNTRYELPM	0.149
HMPASGISSEIIYDGILIEENLRQLKKDKAWLMDQLKKKGISSVSEVFLATLNKGGSLYIDKY	-0.0537
HMPASVSAIRKYLGGGSFKGVGPALAKRIVDAFGEYTIETIENDPKQLAKVKGVSEKMALEINTQ	0.112
HMPAYYQKEAVLDGRASVFAYERDPSSWYFKQLIPGTKKYRTKKIQGATTLEQAKSQALDIALGLRDEP	0.243
HMPDDHFIRGYVTAVLEQVLKVPSIQVEVERGVVILRGDLPGEERQELLDAVSRIHGVARVEYIPL	-0.281
HMPDLSGEEQQIVDILAQRGNLQINTLVVETDIPVHKMNAILFELEMKGVVRVLAGGMYQLL	-0.561
HMPDPLVEIRSAVHSNYAGMIAMLGADNRVYLGREEHYSYQDGQPGQYDNRDGSLLFVSDQPDIYYFL	-1.21
HMPEAITLRDLKTYSKQAASGYLDDHQLVLVEKEAHSEDVPEGQVIKQKPGAGASVKPGDKVEVTFSLGPE	0.22
HMPEKKKYGDFVSMTEEEYGKLVSEYGQEAAKRMVEILNNYKGATGKPYKSDYLAILNWVVKRIKEE	0.077
HMPELFLFNPDTASAATFQALGFSARQAGVLIHFREALGGRFGSVEQFSKSYVVDSATLERLRPYMVF	-0.029
HMPEMHIYTKEGKIHITHIDENEEIKIYNPLGQIIYTGSPQDIPVLEGKGLYIIYIGKSAVEVLES	-0.624
